Experimental findings from patent publication US20090130760A1 (ST MARIANNA UNIVERSITY SCHOOL OF MEDICINE, published 2009) are described below.

For this experiment, the target named is T1, GST (UniProt P08515 1-218 = GST).
T1 construct: Control of the GST pull-down
Description: GST pull-down on glutathione-agarose beads, SDS-PAGE and Sypro Ruby stain. The procedure:
The proteins bound to the beads were separated by SDS-PAGE and stained with Sypro Ruby.
Four micrograms of the GST fusion protein was mixed with 4 μg of His-BARD1¹⁴⁻¹⁸⁹ and 25 μl of glutathione-agarose beads in 1 ml of a buffer containing 50 mM Tris-HCl (pH 7.5), 0.5% NP-40, 150 mM NaCl, 50 mM NaF and 1 mM dithiothreitol. After rotation at 4° C. for 2 hours, GST fusion proteins bound to glutathione-agarose beads were washed three times and subsequently eluted with SDS-PAGE loading buffer.

T1 sequence (P08515 whole entry): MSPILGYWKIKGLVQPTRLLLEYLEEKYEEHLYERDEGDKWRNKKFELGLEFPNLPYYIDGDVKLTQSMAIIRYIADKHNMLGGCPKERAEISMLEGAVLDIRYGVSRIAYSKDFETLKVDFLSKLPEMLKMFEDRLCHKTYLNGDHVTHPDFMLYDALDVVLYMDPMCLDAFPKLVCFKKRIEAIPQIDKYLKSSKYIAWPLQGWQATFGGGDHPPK

B1: His-BARD1^14-189 (other)
chain: IRSGNEPRSAPAMEPDGRGAWAHSRAALDRLEKLLRCSRCTNILREPVCLGGCEHIFCSNCVSDCIGTGCPVCYTPAWIQDLKINRQLDSMIQLCSKLRNLLHDNELSDLKEDKPRKSLFNDAGNKKNSIKMWFSPRSKKVRYVVSKASVQTQPAIKKDASAQQDSYEFVSPSPPA
notes: Bacterially expressed recombinant protein; not shown: His tag
Turning to B1, the binding result was “no binding (tested: 4 µg of each protein in 1 ml)”.
